Results taken from US20240368280A1 (DEUTSCHES KREBSFORSCHUNGSZENTRUM STIFTUNG DES FFENTLICHEN …, published 2024).

Legend:
Human Fcγ receptor IIIb [1] = biological target: T1, Human Fcγ receptor IIIb (human, UniProt O75015 20-208, limits assumed); test: SPR (Biacore T200), His-tagged FcγR captured via anti-His IgG, antibody as analyte, steady-state
T1 construct: Bought protein; also called Fcγ RIIIb
Description: (§1) Binding assays were performed on a Biacore T200 instrument (Cytiva) at 25° C. using assay buffer HBS EP+supplemented with 500 mM NaCl. Fcγ receptors were captured via anti-penta his-tag IgGs (“His capture kit”, Order No. 2895056, Cytiva) covalently amine coupled to a Series S CM5 sensor chip (Cytiva). The amine coupling was carried out according to the manufacturer's instructions using 1-ethyl-3-(3-dimethylaminopropyl) carbodiimide hydrochloride (EDC), N-hydroxysuccinimide (NHS) and ethanolamine HCl, pH 8.5 (“Amine Coupling Kit” BR-1000-50, Cytiva.). Human Fcγ receptor I (R&D Systems, Order No. 1257-FC), Fcγ receptor IIa (R&D Systems, Order No. 1330-CD/F), Fcγ receptor IIb/c (R&D Systems, Order No. 1875-CD), Fcγ receptor IIIa (R&D Systems, Order No. 4325-FC) and Fcγ receptor IIIb (R&D Systems, Order No. 1597-FC) were captured to ˜30 RU.
(§2) Anti-CEACAM6 engineered antibodies were used as analytes in a concentration series from 0.04-25 μM in multi cycle kinetics mode. The sensor surface was regenerated with glycine pH 1.5 after each analyte injection. Obtained sensorgrams were double referenced (subtraction of reference flow cell signal and buffer injection) and were fitted to a 1:1 Langmuir binding model to derive steady-state affinity data using the Biacore T200 Evaluation software.

Human Fcγ receptor IIa [2] = biological target: T2, Human Fcγ receptor IIa (human, UniProt P12318 36-218, limits assumed); test: as above
T2 construct: Bought protein; also called Fcγ RIIa
T2 sequence (looked up): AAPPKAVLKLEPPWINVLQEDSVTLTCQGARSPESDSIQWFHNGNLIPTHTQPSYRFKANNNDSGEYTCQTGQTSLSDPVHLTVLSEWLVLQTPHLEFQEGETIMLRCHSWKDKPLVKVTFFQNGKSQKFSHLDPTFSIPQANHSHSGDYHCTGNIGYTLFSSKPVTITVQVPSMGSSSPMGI
Description: as §1, §2

Human Fcγ receptor IIb/c [3] = biological target: T3, Human Fcγ receptor IIb/c (human, UniProt P31994 46-217); test: as above
T3 construct: Bought protein; also called Fcγ RIIb/c
T3 sequence (looked up): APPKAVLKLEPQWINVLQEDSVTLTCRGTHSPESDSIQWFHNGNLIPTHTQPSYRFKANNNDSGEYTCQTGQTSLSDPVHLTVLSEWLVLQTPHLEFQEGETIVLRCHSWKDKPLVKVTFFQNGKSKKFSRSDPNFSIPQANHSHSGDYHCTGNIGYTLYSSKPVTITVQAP
Description: as §1, §2

Human Fcγ receptor I [4] = biological target: T4, Human Fcγ receptor I (human, UniProt P12314 16-288); test: SPR (Biacore T200), His-tagged FcγR captured via anti-His IgG, antibody as analyte 0.04-25 µM, steady-state affinity
T4 construct: Bought protein; also called Fcγ RI
T4 sequence (P12314 16-288 limits assumed): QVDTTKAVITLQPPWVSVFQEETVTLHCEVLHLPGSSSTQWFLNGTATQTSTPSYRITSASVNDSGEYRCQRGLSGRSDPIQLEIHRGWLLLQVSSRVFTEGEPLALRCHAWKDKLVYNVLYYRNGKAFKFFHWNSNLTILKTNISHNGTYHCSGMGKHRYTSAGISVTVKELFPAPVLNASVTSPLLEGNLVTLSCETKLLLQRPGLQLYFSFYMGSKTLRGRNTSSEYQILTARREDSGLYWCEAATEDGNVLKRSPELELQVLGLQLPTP
Description: as §1, §2

Human Fcγ receptor IIIa [5] = biological target: T5, Human Fcγ receptor IIIa (human, UniProt P08637 17-208, limits assumed); test: SPR (Biacore T200), His-tagged FcγR captured via anti-His IgG, antibody as analyte 0.04-25 µM, steady-state affinity; clear binding response
T5 construct: Bought protein; also called Fcγ RIIIa
T5 sequence (P08637 17-208 limits assumed): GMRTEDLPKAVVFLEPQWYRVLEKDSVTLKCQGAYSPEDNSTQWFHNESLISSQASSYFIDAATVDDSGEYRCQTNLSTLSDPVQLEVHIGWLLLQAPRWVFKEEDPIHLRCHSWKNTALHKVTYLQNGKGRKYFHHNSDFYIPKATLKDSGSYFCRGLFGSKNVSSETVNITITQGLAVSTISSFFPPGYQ
Description: as §1, §2

[6] = biological target: T6, human CEACAM6 (carcinoembryonic antigen-related cell adhesion molecule 6) (human, UniProt P40199 35-320); test: cell-based or functional assay
T6 sequence: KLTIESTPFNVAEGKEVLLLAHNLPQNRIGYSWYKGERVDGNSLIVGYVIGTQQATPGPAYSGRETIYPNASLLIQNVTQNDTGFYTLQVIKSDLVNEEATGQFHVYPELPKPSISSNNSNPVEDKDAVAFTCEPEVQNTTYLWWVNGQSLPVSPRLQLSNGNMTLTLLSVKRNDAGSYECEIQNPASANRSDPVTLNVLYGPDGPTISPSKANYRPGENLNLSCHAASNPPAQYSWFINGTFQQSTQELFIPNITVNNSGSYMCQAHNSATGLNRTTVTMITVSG

Human Fcγ receptor I [7] = biological target: T4, Human Fcγ receptor I; test: SPR (Biacore T200), His-tagged FcγR captured via anti-His IgG, antibody as analyte, steady-state
Description: as §1, §2

Human Fcγ receptor IIIa [8] = biological target: T5, Human Fcγ receptor IIIa; test: as above
Description: as §1, §2

Human Fcγ receptor IIIb [9] = biological target: T1, Human Fcγ receptor IIIb; test: SPR (Biacore T200), His-tagged FcγR captured via anti-His IgG, antibody as analyte, steady-state affinity
Description: as §1, §2

Human Fcγ receptor I [10] = biological target: T4, Human Fcγ receptor I; test: as above
Description: as §1, §2

Human Fcγ receptor IIa [11] = biological target: T2, Human Fcγ receptor IIa; test: as above
Description: as §1, §2

Human Fcγ receptor IIb/c [12] = biological target: T3, Human Fcγ receptor IIb/c; test: as above
Description: as §1, §2

Human Fcγ receptor IIIa [13] = biological target: T5, Human Fcγ receptor IIIa; test: as above
Description: as §1, §2

Human Fcγ receptor IIa [14] = biological target: T2, Human Fcγ receptor IIa; test: SPR (Biacore T200), His-tagged FcγR captured via anti-His IgG, antibody as analyte 0.04-25 µM, steady-state affinity
Description: as §1, §2

Human Fcγ receptor IIIa [15] = biological target: T5, Human Fcγ receptor IIIa; test: as above
Description: as §1, §2

Human Fcγ receptor IIIb [16] = biological target: T1, Human Fcγ receptor IIIb; test: SPR (Biacore T200), His-tagged FcγR captured via anti-His IgG, antibody as analyte 0.04-25 µM, steady-state affinity; clear binding response
Description: as §1, §2

Human Fcγ receptor IIb/c [17] = biological target: T3, Human Fcγ receptor IIb/c; test: as above
Description: as §1, §2

Human Fcγ receptor I [18] = biological target: T4, Human Fcγ receptor I; test: SPR (Biacore T200), His-tagged FcγR captured via anti-His IgG, antibody as analyte 0.04-25 µM, steady-state affinity; Table 3 experiment (engineered Fc variants), steady-state affinity
Description: as §1, §2

T1 sequence (O75015 20-208 limits assumed): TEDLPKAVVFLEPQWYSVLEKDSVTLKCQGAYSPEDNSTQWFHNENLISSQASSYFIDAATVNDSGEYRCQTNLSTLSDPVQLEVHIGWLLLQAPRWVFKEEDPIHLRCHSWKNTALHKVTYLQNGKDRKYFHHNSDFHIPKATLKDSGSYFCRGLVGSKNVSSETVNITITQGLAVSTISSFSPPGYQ

B1: CEACAM6-Human IgG1-LALA (TPP-19919) (antibody)
heavy: not shown
light: DIQLTQSPSFLSASVGDRVTITCKASQNVGTAVAWYQQKPGKAPKLLIYSASNRYTGVPSRFSGSGSGTEFTLTISSLQPEDFATYYCQQYSSYPLTFGGGTKVEIKRTVAAPSVFIFPPSDEQLKSGTASVVCLLNNFYPREAKVQWKVDNALQSGNSQESVTEQDSKDSTYSLSSTLTLSKADYEKHKVYACEVTHQGLSSPVTKSFNRGEC
notes: Human IgG1 with L234A/L235A (EU numbering)
Q: Which results are given for B1?
A: binding result (Human Fcγ receptor IIIb [1]): no binding (tested: 0.04-25 µM); binding result (Human Fcγ receptor IIa [2]): no binding (tested: 0.04-25 µM); binding result (Human Fcγ receptor IIb/c [3]): no binding (tested: 0.04-25 µM); Kd (Human Fcγ receptor I [4]): 3.7 µM; Kd (Human Fcγ receptor IIIa [5]): > 25 µM

B2: CEACAM6-Human IgG1-LALAaglyco (TPP-21518) (antibody)
heavy: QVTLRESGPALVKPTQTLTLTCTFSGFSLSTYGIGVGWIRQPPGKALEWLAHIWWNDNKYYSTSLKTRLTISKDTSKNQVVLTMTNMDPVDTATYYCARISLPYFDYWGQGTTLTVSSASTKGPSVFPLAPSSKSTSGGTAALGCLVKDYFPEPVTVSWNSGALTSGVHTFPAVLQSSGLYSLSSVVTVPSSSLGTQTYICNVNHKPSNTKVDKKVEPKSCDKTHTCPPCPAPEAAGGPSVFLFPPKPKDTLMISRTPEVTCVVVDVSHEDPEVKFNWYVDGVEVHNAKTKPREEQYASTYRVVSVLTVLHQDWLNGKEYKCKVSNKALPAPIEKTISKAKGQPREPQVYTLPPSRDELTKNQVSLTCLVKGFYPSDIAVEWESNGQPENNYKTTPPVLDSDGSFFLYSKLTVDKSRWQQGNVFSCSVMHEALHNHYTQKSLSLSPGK
light: DIQLTQSPSFLSASVGDRVTITCKASQNVGTAVAWYQQKPGKAPKLLIYSASNRYTGVPSRFSGSGSGTEFTLTISSLQPEDFATYYCQQYSSYPLTFGGGTKVEIKRTVAAPSVFIFPPSDEQLKSGTASVVCLLNNFYPREAKVQWKVDNALQSGNSQESVTEQDSKDSTYSLSSTLTLSKADYEKHKVYACEVTHQGLSSPVTKSFNRGEC
notes: Human IgG1 with L234A/L235A/N297A (EU numbering); also called IgG1 LALAaglyco anti-CEACAM6 antibody
Q: B2 was tested. Which “TILs IFNgamma production (co-culture with HCC2935 tumor cells), EC50” value [6] did it give?
A: 0.5 µg/mL

Q: What about the “TILs mediated HCC2935 killing (xCELLigence impedance assay, 100 h), EC50” value [6] of the same binder?
A: 0.43 µg/mL

Q: And the “survivin specific T cells IFNgamma production (co-culture with HCC2935 tumor cells), EC50” value [6]?
A: 0.55 µg/mL

Q: Does B2 bind (Human Fcγ receptor IIIb [1])?
A: no binding (tested: 0.04-25 µM)

Q: Does B2 bind (Human Fcγ receptor I [7])?
A: no binding (tested: 0.04-25 µM)

Q: Does B2 bind (Human Fcγ receptor IIa [2])?
A: no binding (tested: 0.04-25 µM)

Q: Does B2 bind (Human Fcγ receptor IIb/c [3])?
A: no binding (tested: 0.04-25 µM)

Q: Does B2 bind (Human Fcγ receptor IIIa [8])?
A: no binding (tested: 0.04-25 µM)

B3: CEACAM6-Human IgG2 (TPP-3310) (antibody)
heavy: QVTLRESGPALVKPTQTLTLTCTFSGFSLSTYGIGVGWIRQPPGKALEWLAHIWWNDNKYYSTSLKTRLTISKDTSKNQVVLTMTNMDPVDTATYYCARISLPYFDYWGQGTTLTVSSASTKGPSVFPLAPCSRSTSESTAALGCLVKDYFPEPVTVSWNSGALTSGVHTFPAVLQSSGLYSLSSVVTVPSSNFGTQTYTCNVDHKPSNTKVDKTVERKCCVECPPCPAPPVAGPSVFLFPPKPKDTLMISRTPEVTCVVVDVSHEDPEVQFNWYVDGVEVHNAKTKPREEQFNSTFRVVSVLTVVHQDWLNGKEYKCKVSNKGLPAPIEKTISKTKGQPREPQVYTLPPSREEMTKNQVSLTCLVKGFYPSDIAVEWESNGQPENNYKTTPPMLDSDGSFFLYSKLTVDKSRWQQGNVFSCSVMHEALHNHYTQKSLSLSPG
light: DIQLTQSPSFLSASVGDRVTITCKASQNVGTAVAWYQQKPGKAPKLLIYSASNRYTGVPSRFSGSGSGTEFTLTISSLQPEDFATYYCQQYSSYPLTFGGGTKVEIKRTVAAPSVFIFPPSDEQLKSGTASVVCLLNNFYPREAKVQWKVDNALQSGNSQESVTEQDSKDSTYSLSSTLTLSKADYEKHKVYACEVTHQGLSSPVTKSFNRGEC
notes: Human IgG2; expressed in HEK293 cells
Q: What does the source list for B3?
A: TILs IFNgamma production (co-culture with HCC2935 tumor cells), EC50 [6]: 0.7 µg/mL; TILs mediated HCC2935 killing (xCELLigence impedance assay), EC50 [6]: 0.4 µg/mL; survivin specific T cells IFNgamma production (co-culture with HCC2935 tumor cells), EC50 [6]: 0.5 µg/mL; binding result (Human Fcγ receptor IIIb [1]): no binding (tested: Highest concentration used was 16 µM); binding result (Human Fcγ receptor I [7]): no binding (tested: Highest concentration used was 16 µM); binding result (Human Fcγ receptor IIa [2]): no binding (tested: Highest concentration used was 16 µM)

B4: CEACAM6-Human IgG1 (TPP-5468) (antibody)
heavy: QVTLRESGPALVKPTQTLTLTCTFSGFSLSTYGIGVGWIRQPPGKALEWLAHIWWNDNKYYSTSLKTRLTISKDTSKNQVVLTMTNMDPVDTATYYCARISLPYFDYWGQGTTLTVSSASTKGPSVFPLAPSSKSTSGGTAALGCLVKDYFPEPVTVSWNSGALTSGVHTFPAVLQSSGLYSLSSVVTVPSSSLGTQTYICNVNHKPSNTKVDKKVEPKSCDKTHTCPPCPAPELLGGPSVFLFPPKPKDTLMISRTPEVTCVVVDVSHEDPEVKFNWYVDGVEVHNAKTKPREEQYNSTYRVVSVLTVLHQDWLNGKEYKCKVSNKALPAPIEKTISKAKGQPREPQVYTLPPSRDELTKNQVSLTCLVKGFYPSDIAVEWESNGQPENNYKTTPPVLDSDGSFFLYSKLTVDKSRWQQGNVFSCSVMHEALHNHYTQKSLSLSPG
light: DIQLTQSPSFLSASVGDRVTITCKASQNVGTAVAWYQQKPGKAPKLLIYSASNRYTGVPSRFSGSGSGTEFTLTISSLQPEDFATYYCQQYSSYPLTFGGGTKVEIKRTVAAPSVFIFPPSDEQLKSGTASVVCLLNNFYPREAKVQWKVDNALQSGNSQESVTEQDSKDSTYSLSSTLTLSKADYEKHKVYACEVTHQGLSSPVTKSFNRGEC
notes: expressed in HEK293 cells; also called hIgG1; anti-CEACAM6 human IgG1 format
Q: Which Kd (Human Fcγ receptor IIIb [9]) does the source give for B4 here?
A: 7.4 µM

Q: What about the Kd (Human Fcγ receptor I [10]) of the same binder?
A: 0.32 µM

Q: And the Kd (Human Fcγ receptor IIa [11])?
A: 7.3 µM

Q: What about the Kd (Human Fcγ receptor IIb/c [12]) of the same binder?
A: 11 µM

Q: And the Kd (Human Fcγ receptor IIIa [13])?
A: 1 µM

Q: What about the Kd (Human Fcγ receptor IIa [14]) of the same binder?
A: 21 µM

Q: And the Kd (Human Fcγ receptor IIIa [15])?
A: 4.9 µM

Q: And the Kd (Human Fcγ receptor IIIb [16])?
A: > 25 µM

Q: What about the Kd (Human Fcγ receptor IIb/c [17]) of the same binder?
A: > 25 µM

Q: What about the Kd (Human Fcγ receptor I [18]) of the same binder?
A: 0.016 µM

B5: CEACAM6-Human IgG1-aglyco (TPP-10914) (antibody)
heavy: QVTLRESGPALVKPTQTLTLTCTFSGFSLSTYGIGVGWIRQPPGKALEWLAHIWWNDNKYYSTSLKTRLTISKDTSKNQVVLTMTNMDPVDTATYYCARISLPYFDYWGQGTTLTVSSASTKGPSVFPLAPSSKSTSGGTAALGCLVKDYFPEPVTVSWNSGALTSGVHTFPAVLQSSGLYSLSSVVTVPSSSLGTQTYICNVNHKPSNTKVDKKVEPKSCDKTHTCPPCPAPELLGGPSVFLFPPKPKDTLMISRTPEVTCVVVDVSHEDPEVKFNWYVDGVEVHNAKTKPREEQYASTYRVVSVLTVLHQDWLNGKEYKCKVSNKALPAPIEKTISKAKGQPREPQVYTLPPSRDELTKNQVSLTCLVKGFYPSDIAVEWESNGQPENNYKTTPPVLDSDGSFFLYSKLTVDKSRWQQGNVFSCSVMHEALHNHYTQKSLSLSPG
light: DIQLTQSPSFLSASVGDRVTITCKASQNVGTAVAWYQQKPGKAPKLLIYSASNRYTGVPSRFSGSGSGTEFTLTISSLQPEDFATYYCQQYSSYPLTFGGGTKVEIKRTVAAPSVFIFPPSDEQLKSGTASVVCLLNNFYPREAKVQWKVDNALQSGNSQESVTEQDSKDSTYSLSSTLTLSKADYEKHKVYACEVTHQGLSSPVTKSFNRGEC
notes: Human IgG1 with N297A (EU numbering), aglycosylated
Q: Does B5 bind (Human Fcγ receptor IIIb [1])?
A: no binding (tested: 0.04-25 µM)

Q: Does B5 bind (Human Fcγ receptor IIa [2])?
A: no binding (tested: 0.04-25 µM)

Q: Does B5 bind (Human Fcγ receptor IIb/c [3])?
A: no binding (tested: 0.04-25 µM)

Q: Does B5 bind (Human Fcγ receptor IIIa [8])?
A: no binding (tested: 0.04-25 µM)

Q: And the Kd (Human Fcγ receptor I [4])?
A: 1.2 µM
